Assays:
[1] = target: MsSepF_(core) (C-terminal FtsZ-binding core of Methanobrevibacter smithii SepF, residues 54-149) (Methanobrevibacter smithii); test: not stated; MsSepFcore in solution (Supplementary Fig. 6); method not given
[2] = target: MsSepF_(core) (C-terminal FtsZ-binding core of Methanobrevibacter smithii SepF, residues 54-149) (Methanobrevibacter smithii); test: SPR; Biacore T200, 25 °C, 150 mmol/L NaCl, 25 mmol/L Hepes pH 8; MsSepFcore amine-coupled on CM5 (3200 and 5000 RU), FtsZCTD peptide flowed over; steady-state fit; apparent Kd

Chain of MsSepF_(core) (C-terminal FtsZ-binding core of Methanobrevibacter smithii SepF, residues 54-149) (Methanobrevibacter smithii) (main, as listed by the source): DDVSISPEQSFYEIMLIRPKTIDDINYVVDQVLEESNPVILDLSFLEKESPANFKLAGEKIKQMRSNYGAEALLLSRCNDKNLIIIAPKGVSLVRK

Molecule | stoichiometry N [1] | Kd [2]
MsSepF_(core) (C-terminal FtsZ-binding core of Methanobrevibacter smithii SepF, residues 54-149) (domain or fragment) | 2 | 
NEDQLDDFIDGIF [FtsZCTD peptide (C-terminal domain of Methanobrevibacter smithii FtsZ)] |  | 84 µM

Source: article PMC8178401
